Experimental findings from patent US20220323495A1 (NATIONAL RESEARCH COUNCIL OF CANADA, published 2022) are described below.

Assay [1] addresses T1, EGFRvIII amino acid residues 15 to 37 with Tyr25 to Ala mutation, yeast-displayed (human, not fully specified).
T1 construct: The entry already carries the mutation
T1 peptide: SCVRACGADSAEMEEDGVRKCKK
The assay can be described thus: flow cytometry on yeast displaying the mutated 15-37 fragment. From the text: (§1) Assessment of the binding of anti-EGFRvIII monoclonal antibodies to the fusion proteins expressed on yeast cell surface was done by flow cytometry analysis. Yeast cells were labeled with both the anti-EGFRvIII monoclonal antibody and chicken anti-Myc antibody the latter being used to monitor the level of expression of the fusion protein. Following a wash step, binding of the primary antibodies is probed by a two-color indirect fluorescence labeling using a specific mouse and chicken secondary antibodies for each of the primary antibody respectively.
(§2) To further characterize mAb epitopes within the EGFRvIII 15-37 region, an alanine scan of this region was performed, and modified fragments were expressed at the surface of the yeast. […] The resulting DNAs were expressed at the surface of the yeast and each anti-EGFRvIII mAbs was tested on the corresponding yeast mutant strain by flow cytometry analysis. The original Ala19 and Ala22 were not mutated. Thus, this assay determined the contribution of each amino acid(s) in mAb binding in comparison to the original wild-type fragment (SEQ ID NO:5) which is attributed the value of 100%.
A general note: In flow cytometry, cells or beads pass a laser one at a time.

Assay [2] has as its target T2, EGFRvIII amino acid residues 15 to 37 with Glu26 to Ala mutation, yeast-displayed (human, not fully specified).
T2 construct: The entry already carries the mutation
T2 peptide: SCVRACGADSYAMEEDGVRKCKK
The assay is described as above.
Text: as §1, §2

The target in assay [3] is T3, EGFRvIII amino acid residues 15 to 37 with Asp23 to Ala mutation, yeast-displayed (human, not fully specified).
T3 construct: The entry already carries the mutation
T3 peptide: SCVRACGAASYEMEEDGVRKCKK
Described as above.
Text: as §1, §2

For assay [4], the target named is T4, EGFRvIII amino acid residues 15 to 37 with Val17 to Ala mutation, yeast-displayed (human, not fully specified).
T4 construct: The entry already carries the mutation
T4 peptide: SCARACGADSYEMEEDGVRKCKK
The assay is described as above.
Text: as §1, §2

In assay [5] the target is T5, EGFRvIII amino acid residues 15 to 37 with Gly31 to Ala mutation, yeast-displayed (human, not fully specified).
T5 construct: The entry already carries the mutation
T5 peptide: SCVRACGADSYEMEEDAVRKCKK
The assay can be described thus: flow cytometry on yeast displaying the Ala-mutated 15-37 fragment; normalized to Myc-tag; wild-type fragment = 100%.
Text: as §1, §2

Assay [6] has as its target T1, EGFRvIII amino acid residues 15 to 37 …. Described as above.
Text: as §1, §2

Assay [7] concerns the target T2, EGFRvIII amino acid residues 15 to 37 …. The description is as above.
Text: as §1, §2

B1: F269-3D12 anti-EGFRvIII monoclonal antibody (antibody, V domains shown)
VH: EVQLQQSGPELVKPGSSVRISCKASGYTFTDYNMDWVKQSHGKSLEWIGTINPNNGGTSYNQKFKGKATLTVDKSSSTAYMELRSLTSEDSAVYYCARVRQLGLWFAYWGQGTLVTVSA
VL: EIVLTQSPALMAASPGEKVTITCSVSSSISSSNLHWYQQKSETSPKPWIYGTSNLASGVPVRFSGSGSGTSYSLTISSMEAEDAATYYCQQWSSYPLTFGSGTKLEIK
notes: Mouse hybridoma IgG, tested as supernatant or Protein G purified mAb; also called 3D12-2
Take B1: the binding result in assay [1] and in assay [2] was “no binding” each time.

B2: F265-5B7 anti-EGFRvIII monoclonal antibody (antibody, V domains shown)
VH: QIQLVQSGPELKKPGETVMISCKASGYSFTNYGMNWVKQAPEKDLKWMGWINTYTGESRYVDEFKGRFAFSLETSVSIVYLKINNLKNEDMATYFCARGPNFDVWGTGTTVTVSS
VL: not shown
notes: Mouse hybridoma IgG, tested as supernatant or Protein G purified mAb; also called 5B7-2
As to B2, the binding result in assay [3] and in assay [4] was “no binding” in each case. In addition, the “% of binding compared to the wild-type sequence” value in assay [5] was found to be 98.9%; in assay [6], 192%; in assay [7] it was 140%.
